# Reference: PMC4430201 (Nature, 2014)
# Target: the molecule itself
# Assay: crystal structure
protein,measurement,value
"lantibiotic dehydratase NisB (enzyme, Lactococcus lactis, methylated prior to crystallization (residues not stated)) MIKSSFKAQPFLVRNTILCPNDKRSFTEYTQVIETVSKNKVFLEQLLLANPKLYDVMQKYNAGLLKKKRVKKLFESIYKYYKRSYLRSTPFGLFSETSIGVFSKSSQYKLMGKTTKGIRLDTQWLIRLVHKMEVDFSKKLSFTRNNANYKFGDRVFQVYTINSSELEEVNIKYTNVYQIISEFCENDYQKYEDICETVTLCYGDEYRELSEQYLGSLIVNHYLISNLQKDLLSDFSWNTFLTKVEAIDEDKKYIIPLKKVQKFIQEYSEIEIGEGIEKLKEIYQEMSQILENDNYIQIDLISDSEINFDVKQKQQLEHLAEFLGNTTKSVRRTYLDDYKDKFIEKYGVDQEVQITELFDSTFGIGAPYNYNHPRNDFYESEPSTLYYSEEEREKYLSMYVEAVKNHNVINLDDLESHYQKMDLEKKSELQGLELFLNLAKEYEKDIFILGDIVGNNNLGGASGRFSALSPELTSYHRTIVDSVERENENKEITSCEIVFLPENIRHANVMHTSIMRRKVLPFFTSTSHNEVLLTNIYIGIDEKEKFYARDISTQEVLKFYITSMYNKTLFSNELRFLYEISLDDKFGNLPWELIYRDFDYIPRLVFDEIVISPAKWKIWGRDVNSKMTIRELIQSKEIPKEFYIVNGDNKVYLSQKNPLDMEILESAIKKSSKRKDFIELQEYFEDENIINKGEKGRVADVVVPFIRTRALGNEGRAFIREKRVSVERREKLPFNEWLYLKLYISINRQNEFLLSYLPDIQKIVANLGGNLFFLRYTDPKPHIRLRIKCSDLFLAYGSILEILKRSRKNRIMSTFDISIYDQEVERYGGFDTLELSEAIFCADSKIIPNLLTLIKDTNNDWKVDDVSILVNYLYLKCFFQNDNKKILNFLNLVSTKKVKENVNEKIEHYLKLLKVNNLGDQIFYDKNFKELKHAIKNLFLKMIAQDFELQKVYSIIDSIIHVHNNRLIGIERDKEKLIYYTLQRLFVSEEYMK",stoichiometry N,2
